Source: patent publication US6358897B1, “Alkyl trypsin compositions and methods of use in contact lens cleaning and disinfecting systems” (Alcon Laboratories, Inc., priority 1996, dated 2002)

Tested on: azocasein
Assay: Stability of Me-trypsin in the Example 2A composition, azocasein method
Assay type: physicochemical
Method: Azocasein Method The following solutions are used in this assay: 1) Buffer solution: 0.05 M sodium phosphate buffer containing 0.9% sodium chloride, pH 7.6. 2) Substrate solution: 2 mg/ml azocasein in the buffer solution mentioned above. The assay is initiated by mixing 1 ml of an appropriately diluted (such that the enzyme activity is in the range of standard curve) enzyme composition in phosphate buffer with 2 ml of azocasein substrate solution (2 mg/ml). After incubation at 37° C. for 20 minutes, the mixture is removed from the incubator and 1 ml of trichloroacetic acid to (14% w/v) is added to stop the enzyme reaction. The mixture is vortexed well and allowed to stand at room temperature for 20 minutes. After centrifuging at 2500 rpm (with a Beckman GS-6R Centrifuge) for 15 minutes, the supernatant is filtered with a serum sampler. 2 ml of the clear yellow filtrate is then adjusted to a neutral pH with 2 ml of 0.5 N sodium hydroxide and the absorbance of 440 nm wavelength light is measured with a spectrophotometer. The amount of azocasein hydrolyzed is calculated based on a standard curve of known concentrations of azocasein solution developed under identical conditions. An enzyme activity unit (“AZ U”) is defined as that amount of enzyme which hydrolyzes 1 μg of azocasein substrate/minute at 37° C. […] At the appointed time, aliquots were tested for enzyme activity by the azocasein method. Activity levels were compared with initial levels and expressed as percent remaining activity.

For methyl trypsin [Me-Trypsin], the “Percent Remaining Activity” value (40° C., 1 week) was 100%, the “Percent Remaining Activity” value (40° C., 2 weeks) was 100% and the “Percent Remaining Activity” value (40° C., 4 weeks) was 93.7%. The “Percent Remaining Activity” value (40° C., 6 weeks) was 100%, the “Percent Remaining Activity” value (40° C., 8 weeks) was 100% and the “Percent Remaining Activity” value (40° C., 12 weeks) was 100%. The “Percent Remaining Activity” value (45° C., 1 week) was 100%, the “Percent Remaining Activity” value (45° C., 2 weeks) was 100% and the “Percent Remaining Activity” value (45° C., 4 weeks) was 92.7%. For the same substance, the “Percent Remaining Activity” value (45° C., 6 weeks) was 97.8%, the “Percent Remaining Activity” value (45° C., 8 weeks) was 100% and the “Percent Remaining Activity” value (45° C., 12 weeks) was 97.6%. For the same substance, the “Percent Remaining Activity” value (50° C., 1 week) was 91.8%, the “Percent Remaining Activity” value (50° C., 2 weeks) was 91.8% and the “Percent Remaining Activity” value (50° C., 4 weeks) was 82.4%. The “Percent Remaining Activity” value (50° C., 6 weeks) was 81.3%, the “Percent Remaining Activity” value (50° C., 8 weeks) was 75.2% and the “Percent Remaining Activity” value (50° C., 12 weeks) was 71.5%. For the same substance, the “Percent Remaining Activity” value (55° C., 1 week) was 82.1%, the “Percent Remaining Activity” value (55° C., 2 weeks) was 75.3% and the “Percent Remaining Activity” value (55° C., 4 weeks) was 46.5%. The “Percent Remaining Activity” value (RT, 1 week) was 100%, the “Percent Remaining Activity” value (RT, 2 weeks) was 100% and the “Percent Remaining Activity” value (RT, 4 weeks) was 94.1%. For the same substance, the “Percent Remaining Activity” value (RT, 6 weeks) was 100%, the “Percent Remaining Activity” value (RT, 8 weeks) was 100% and the “Percent Remaining Activity” value (RT, 12 weeks) was 100%.
